Like-named read-outs stand apart in the source and are kept apart here.
T1: MbpAgo WT (Mucilaginibacter paludis, UniProt H1YCU5 1-795)
T1 sequence: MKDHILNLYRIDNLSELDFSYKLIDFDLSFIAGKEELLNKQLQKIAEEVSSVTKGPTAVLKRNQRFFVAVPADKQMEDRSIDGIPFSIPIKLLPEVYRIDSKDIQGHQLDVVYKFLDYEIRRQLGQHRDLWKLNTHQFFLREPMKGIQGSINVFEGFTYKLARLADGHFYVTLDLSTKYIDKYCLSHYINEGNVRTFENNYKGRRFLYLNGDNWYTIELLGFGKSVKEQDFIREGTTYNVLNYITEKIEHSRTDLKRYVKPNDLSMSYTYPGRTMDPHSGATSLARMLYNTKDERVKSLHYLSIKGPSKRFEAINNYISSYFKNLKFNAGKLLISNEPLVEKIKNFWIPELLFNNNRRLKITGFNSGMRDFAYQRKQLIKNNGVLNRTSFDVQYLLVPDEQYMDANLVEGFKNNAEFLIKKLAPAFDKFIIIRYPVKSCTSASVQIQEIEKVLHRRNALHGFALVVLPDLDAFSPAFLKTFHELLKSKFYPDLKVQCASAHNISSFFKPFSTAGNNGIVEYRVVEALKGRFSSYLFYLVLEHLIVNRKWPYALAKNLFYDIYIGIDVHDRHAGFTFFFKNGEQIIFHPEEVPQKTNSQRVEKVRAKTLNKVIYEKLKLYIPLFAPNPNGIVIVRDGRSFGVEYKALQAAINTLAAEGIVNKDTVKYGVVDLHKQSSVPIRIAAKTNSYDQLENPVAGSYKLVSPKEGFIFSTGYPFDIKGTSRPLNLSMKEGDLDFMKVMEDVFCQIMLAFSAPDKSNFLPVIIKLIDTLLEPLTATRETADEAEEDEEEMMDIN


Experiments:
[1] = biological target: T1, MbpAgo WT; assay: EMSA
[2] = biological target: T1, MbpAgo WT; assay: EMSA; remark: listed apart in the source

Binder	Kd [1] [nM]	Kd [2] [nM]
TGAGGTAGTAGGTTGT (ssDNA, 5' phosphate) [T-gDNA iFAM, 5'P]	111 ± 3	205 ± 7.6
TGAGGTAGTAGGTTGT (ssDNA) [T-gDNA iFAM, 5'OH]	148 ± 5.8	162 ± 4.8

From publication PMC9122594
